Measurements as given in paper PMC11582362 (Nature Communications, 2023).

B1: ADAR1-dsRBD3 dsRBD3-short construct (residues 716-797) (domain or fragment, human, UniProt P55265 716-797, looked up)
chain: IGELVRYLNTNPVGGLLEYARSHGFAAEFKLVDQSGPPHEPKFVYQAKVGGRWFPAVCAHSKKQGKQEAADAALRVLIGENE
notes: human ADAR1, folded part of the third dsRBD, residues 716-797 (Uniprot entry P55265); Modified pET28a with TEV site; also called dsRBD-short; ADAR1-dsRBD3 (crystal structures); source: E. coli BL21(DE3) Codon-plus (RIL), purified (Ni-NTA, TEV cleavage, SEC); not shown: His6, N-terminal, cleaved
B2: ADAR1-dsRBD3 dsRBD3-mid construct (residues 708-801), tag cleaved (domain or fragment, human, UniProt P55265 708-801, looked up)
chain: MMPNKVRKIGELVRYLNTNPVGGLLEYARSHGFAAEFKLVDQSGPPHEPKFVYQAKVGGRWFPAVCAHSKKQGKQEAADAALRVLIGENEKAER
notes: human ADAR1, third dsRBD, residues 708-801 (Uniprot entry P55265); Modified pET28a with TEV site; also called dsRBD-mid; source: E. coli BL21(DE3) Codon-plus (RIL), purified (Ni-NTA, TEV cleavage, SEC); not shown: His6, N-terminal, cleaved
B3: ADAR1-dsRBD3 (residues 708-801) with uncleavable His6-tag, wild type (domain or fragment, human, UniProt P55265 708-801, looked up)
chain: B2 chain
notes: human ADAR1, third dsRBD, residues 708-801 (Uniprot entry P55265); pET28a between NdeI and XhoI; also called wild-type ADAR1-dsRBD3; source: E. coli BL21(DE3) Codon-plus (RIL), purified (Ni-NTA, SEC); not shown: His6, N-terminal, kept
B4: ADAR1-dsRBD3 dsRBD3-long construct (residues 688-817) (domain or fragment, human, UniProt P55265 688-817, looked up)
chain: MASDNQPEGMISESLDNLESMMPNKVRKIGELVRYLNTNPVGGLLEYARSHGFAAEFKLVDQSGPPHEPKFVYQAKVGGRWFPAVCAHSKKQGKQEAADAALRVLIGENEKAERMGFTEVTPVTGASLRR
notes: human ADAR1, third dsRBD with flanking regions, residues 688-817 (Uniprot entry P55265); Modified pET28a with TEV site; source: E. coli BL21(DE3) Codon-plus (RIL), purified (Ni-NTA, TEV cleavage, SEC); not shown: His6, N-terminal, cleaved

Columns and labels:
[1] = molecular target: the molecule itself; experiment: SEC-SAXS; BioSEC-3 column, 15 °C, 0.3 mL/min, 20 mM Na-HEPES pH 7.3, 55 mM KOAc, 10 mM NaCl, 1 mM TCEP; purification tags cleaved off; SWING beamline, SOLEIL
[2] = molecular target: the molecule itself; experiment: SEC-MALS; SEC-MALLS, BioSEC-3 column, 25 °C, 0.4 mL/min, 20 mM Na-phosphate pH 7.0, 100 mM NaCl, 2 mM 2-mercaptoethanol; His6-tag kept

| Protein | stoichiometry N [1] | stoichiometry N [2] |
| --- | --- | --- |
| B1 | 2 |  |
| B2 | 2 |  |
| B3 |  | 2 |
| B4 | 2 |  |
